{
  "source": "paper PMC12070368",
  "about": "(ACS Applied Nano Materials, 2025)",
  "binders": {"B1": {"name": "TIM-1 (receptor, UniProt Q96D42 21-295, looked up)", "chain": "SVKVGGEAGPSVTLPCHYSGAVTSMCWNRGSCSLFTCQNGIVWTNGTHVTYRKDTRYKLLGDLSRRDVSLTIENTAVSDSGVYCCRVEHRGWFNDMKITVSLEIVPPKVTTTPIVTTVPTVTTVRTSTTVPTTTTVPMTTVPTTTVPTTMSIPTTTTVLTTMTVSTTTSVPTTTSIPTTTSVPVTTTVSTFVPPMPLPRQNHEPVATSPSSPQPAETHPTTLQGAIRREPTSSPLYSYTTDGNDTVTESSDGLWNNNQTQLFLEHSLLTANTTKG"}},
  "target": "T1, Ebolavirus glycoprotein (EGP) of the Zaire strain (Zaire ebolavirus, UniProt Q05320 33-650)",
  "T1 sequence": "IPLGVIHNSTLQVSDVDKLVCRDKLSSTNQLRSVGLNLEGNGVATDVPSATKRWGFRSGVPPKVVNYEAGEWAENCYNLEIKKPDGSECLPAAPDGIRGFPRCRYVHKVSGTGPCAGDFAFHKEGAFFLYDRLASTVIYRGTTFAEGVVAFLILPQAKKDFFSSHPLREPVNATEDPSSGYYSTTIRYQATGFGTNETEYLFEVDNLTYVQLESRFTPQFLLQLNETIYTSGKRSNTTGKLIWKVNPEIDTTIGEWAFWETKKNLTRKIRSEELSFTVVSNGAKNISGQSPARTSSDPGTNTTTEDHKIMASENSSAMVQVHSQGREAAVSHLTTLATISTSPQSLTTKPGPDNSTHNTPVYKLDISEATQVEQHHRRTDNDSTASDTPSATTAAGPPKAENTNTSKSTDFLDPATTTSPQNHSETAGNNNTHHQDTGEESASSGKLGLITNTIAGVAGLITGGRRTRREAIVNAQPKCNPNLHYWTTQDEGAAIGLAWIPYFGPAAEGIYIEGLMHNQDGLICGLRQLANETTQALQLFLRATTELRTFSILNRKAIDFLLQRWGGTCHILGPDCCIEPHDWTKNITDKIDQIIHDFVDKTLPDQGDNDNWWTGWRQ",
  "conditions": "both partners purified",
  "data": [
    {"binder": "B1", "values": [
      {"measurement": "ΔSPR", "result": 35, "unit": "nm"}
    ]}
  ]
}
